Measured values: article PMC10602139, “Architecture and rearrangements of a sperm-specific Na^+/H^+ exchanger” (Research Square, 2023)

Assays:
[1] = biological target: the molecule itself; test: SEC; FSEC of eGFP fusion constructs affinity purified in digitonin micelles; Superose 6 10/300, GFP fluorescence detected
[2] = biological target: the molecule itself; test: SEC; FSEC, thermal disassembly: protein diluted 200-fold into destabilizing buffer pH 6 without or with cAMP (up to 5 mM), heated 10 min to the desired temperature; ratio of monomer to dimer species (ρ) against temperature; dimer to monomers

B1: sp9C1 truncated at amino acid position 494, eGFP fusion (domain or fragment, Strongylocentrotus purpuratus, UniProt A3RL54 30-494, looked up)
chain: SSGGSGHTPTTQATHADDHDLTTHNGTEEHDDGHDDGHDDLHAHAPKVIVFISGSCLFGAISRSLFKKLPIPYTVVLLILGAILGVVASNVPLVEEHTRDVAHMDPHVLLQIFLPVLIFESAFAMDVHTFMRSFSQVCILALFGLVVASVLTAVLAMNLFNYNWNFSEAMMFGAIMSATDPVAVVALLKDLGASKQLGTIIEGESLLNDGCAIVIFNVFMKMVFFPQLTSTVGQNVLYFLQVAVAGPLWGYAVAKVTVFFLSHIFNDALVEITITLAATYLTYYIGDIWLEVSGVLAVVVLGLIVNAEKTSISPEVEVFLHRFWEMLAYLANTLIFMMVGVVVTQKALVAVDKMDWFYLIILYLAITIIRGMVISLFSPILSRIGYGLTWRNAVIMTWGGLRGAVGLALALVVENLAGNDVIGSKFLFHTAGIVVLTLVINATTIQTLLRILGMSDISIPKRLAM
notes: the ARD is deleted, the ion-exchange domain (ED) remains; source: HEK293F, transiently transfected; not shown: mEGFP, C-terminal, kept; Twinstrep, C-terminal, kept
With B1 the “stoichiometry N” value [1] was 2.

B2: sp9C1-eGFP, full length (FSEC sample) (natural protein, Strongylocentrotus purpuratus, UniProt A3RL54 30-1325, looked up)
chain: SSGGSGHTPTTQATHADDHDLTTHNGTEEHDDGHDDGHDDLHAHAPKVIVFISGSCLFGAISRSLFKKLPIPYTVVLLILGAILGVVASNVPLVEEHTRDVAHMDPHVLLQIFLPVLIFESAFAMDVHTFMRSFSQVCILALFGLVVASVLTAVLAMNLFNYNWNFSEAMMFGAIMSATDPVAVVALLKDLGASKQLGTIIEGESLLNDGCAIVIFNVFMKMVFFPQLTSTVGQNVLYFLQVAVAGPLWGYAVAKVTVFFLSHIFNDALVEITITLAATYLTYYIGDIWLEVSGVLAVVVLGLIVNAEKTSISPEVEVFLHRFWEMLAYLANTLIFMMVGVVVTQKALVAVDKMDWFYLIILYLAITIIRGMVISLFSPILSRIGYGLTWRNAVIMTWGGLRGAVGLALALVVENLAGNDVIGSKFLFHTAGIVVLTLVINATTIQTLLRILGMSDISIPKRLAMAGAVRRIHEGQNRTLNMLKSDRFLADADWDIATAACEISDPYSALSDDENAPADELTLGERKSVCPGCKAMVPNEPSPREFADMMEEARLRMLKAEKISYWKQFEHGMLAREALRLLVQHAEVAADEKDQFILVDDLKKSWQIKGIYPWLKRKLEDLISEKKIAAIPMPKYKLGKLMYKICHHMAFEVTINIAIVLNIVPIIMEFVVQDKMASVSTMAAPGSTVSSEPSSLQKIEDALRISNYVFFVIYAIEAIVKILGLGRHYIVSHWNKFDAFILVVALVDIIIAETLLKGSITINLSSIKVVKLFRLLRGLRMLRLTKALIPKLILVVNGKINNQLSLGYDVGKGYIIGEEEVGKIIDRMVDNKKILRELKHISETGRLQVVKELGLLQREHPGIAVSVKTRQAIRTILNHSRETIHELQGAGLLDEMEAHKLELTVEIKMKRLMNAPSSIPPPPPENLLKNVSWLAGDMKLIDFIKARASLLHFDYGEVIVREGDESDGLFLIVSGLVKLYGKSAFLDHDNPPVTAGSEENEVFEDYLTVGNVIGEMGVLTKKPRNATVTCETTVQVYFITAEDMNIAIDTFTLYPSLEYRLWRVVAIRIATPLIMEQMAFQGWTQEKVKLHLERGYLVDLAESHFQFNIDATLEDVILINGTAYNAHTREEIRSPCLISRTVHKLTFQYTATEEPRLFVVRNAEYNGPILDGRLDVDSKRSLISITEISSNMCLKHAAELRQKNSKVMLSRKSSGAAAKEEEDCIPNTSDVEQAAGVSPSVPTKTTPKPKSFLPSLGLSMSKERVNGEAVEESPVKTKQGEETPETEEGAAPRVNV
notes: SLC9C1 (sperm-specific Na+/H+ exchanger), Strongylocentrotus purpuratus, full length; followed by a PreScission site and mEGFP-Twinstrep; A PreScission protease site lies between SLC9C1 and the mEGFP-Twinstrep tag; also called FL; FL-sp9C1; source: HEK293F, transiently transfected; not shown: mEGFP, C-terminal, kept; Twinstrep, C-terminal, kept
In the case of B2, the “stoichiometry N” value [1] is reported as 2, the “ρsat (saturating ratio of monomer to dimer species), 5 mM cAMP” value [2] is reported as 2.4 and the “ρsat (saturating ratio of monomer to dimer species), cAMP-free” value [2] is reported as roughly 0.9.

B3: sp9C1 K880A mutant, eGFP fusion (natural protein, Strongylocentrotus purpuratus, UniProt A3RL54 30-1325, looked up)
chain: SSGGSGHTPTTQATHADDHDLTTHNGTEEHDDGHDDGHDDLHAHAPKVIVFISGSCLFGAISRSLFKKLPIPYTVVLLILGAILGVVASNVPLVEEHTRDVAHMDPHVLLQIFLPVLIFESAFAMDVHTFMRSFSQVCILALFGLVVASVLTAVLAMNLFNYNWNFSEAMMFGAIMSATDPVAVVALLKDLGASKQLGTIIEGESLLNDGCAIVIFNVFMKMVFFPQLTSTVGQNVLYFLQVAVAGPLWGYAVAKVTVFFLSHIFNDALVEITITLAATYLTYYIGDIWLEVSGVLAVVVLGLIVNAEKTSISPEVEVFLHRFWEMLAYLANTLIFMMVGVVVTQKALVAVDKMDWFYLIILYLAITIIRGMVISLFSPILSRIGYGLTWRNAVIMTWGGLRGAVGLALALVVENLAGNDVIGSKFLFHTAGIVVLTLVINATTIQTLLRILGMSDISIPKRLAMAGAVRRIHEGQNRTLNMLKSDRFLADADWDIATAACEISDPYSALSDDENAPADELTLGERKSVCPGCKAMVPNEPSPREFADMMEEARLRMLKAEKISYWKQFEHGMLAREALRLLVQHAEVAADEKDQFILVDDLKKSWQIKGIYPWLKRKLEDLISEKKIAAIPMPKYKLGKLMYKICHHMAFEVTINIAIVLNIVPIIMEFVVQDKMASVSTMAAPGSTVSSEPSSLQKIEDALRISNYVFFVIYAIEAIVKILGLGRHYIVSHWNKFDAFILVVALVDIIIAETLLKGSITINLSSIKVVKLFRLLRGLRMLRLTKALIPKLILVVNGKINNQLSLGYDVGKGYIIGEEEVGKIIDRMVDNKKILRELKHISETGRLQVVAELGLLQREHPGIAVSVKTRQAIRTILNHSRETIHELQGAGLLDEMEAHKLELTVEIKMKRLMNAPSSIPPPPPENLLKNVSWLAGDMKLIDFIKARASLLHFDYGEVIVREGDESDGLFLIVSGLVKLYGKSAFLDHDNPPVTAGSEENEVFEDYLTVGNVIGEMGVLTKKPRNATVTCETTVQVYFITAEDMNIAIDTFTLYPSLEYRLWRVVAIRIATPLIMEQMAFQGWTQEKVKLHLERGYLVDLAESHFQFNIDATLEDVILINGTAYNAHTREEIRSPCLISRTVHKLTFQYTATEEPRLFVVRNAEYNGPILDGRLDVDSKRSLISITEISSNMCLKHAAELRQKNSKVMLSRKSSGAAAKEEEDCIPNTSDVEQAAGVSPSVPTKTTPKPKSFLPSLGLSMSKERVNGEAVEESPVKTKQGEETPETEEGAAPRVNV
notes: SLC9C1, Strongylocentrotus purpuratus, with K880A; also called R880A (as printed once); source: HEK293F, transiently transfected; not shown: mEGFP, C-terminal, kept; Twinstrep, C-terminal, kept
B3: binds [2].

B4: sp9C1 Y1035C mutant, eGFP fusion (natural protein, Strongylocentrotus purpuratus, UniProt A3RL54 30-1325, looked up)
chain: SSGGSGHTPTTQATHADDHDLTTHNGTEEHDDGHDDGHDDLHAHAPKVIVFISGSCLFGAISRSLFKKLPIPYTVVLLILGAILGVVASNVPLVEEHTRDVAHMDPHVLLQIFLPVLIFESAFAMDVHTFMRSFSQVCILALFGLVVASVLTAVLAMNLFNYNWNFSEAMMFGAIMSATDPVAVVALLKDLGASKQLGTIIEGESLLNDGCAIVIFNVFMKMVFFPQLTSTVGQNVLYFLQVAVAGPLWGYAVAKVTVFFLSHIFNDALVEITITLAATYLTYYIGDIWLEVSGVLAVVVLGLIVNAEKTSISPEVEVFLHRFWEMLAYLANTLIFMMVGVVVTQKALVAVDKMDWFYLIILYLAITIIRGMVISLFSPILSRIGYGLTWRNAVIMTWGGLRGAVGLALALVVENLAGNDVIGSKFLFHTAGIVVLTLVINATTIQTLLRILGMSDISIPKRLAMAGAVRRIHEGQNRTLNMLKSDRFLADADWDIATAACEISDPYSALSDDENAPADELTLGERKSVCPGCKAMVPNEPSPREFADMMEEARLRMLKAEKISYWKQFEHGMLAREALRLLVQHAEVAADEKDQFILVDDLKKSWQIKGIYPWLKRKLEDLISEKKIAAIPMPKYKLGKLMYKICHHMAFEVTINIAIVLNIVPIIMEFVVQDKMASVSTMAAPGSTVSSEPSSLQKIEDALRISNYVFFVIYAIEAIVKILGLGRHYIVSHWNKFDAFILVVALVDIIIAETLLKGSITINLSSIKVVKLFRLLRGLRMLRLTKALIPKLILVVNGKINNQLSLGYDVGKGYIIGEEEVGKIIDRMVDNKKILRELKHISETGRLQVVKELGLLQREHPGIAVSVKTRQAIRTILNHSRETIHELQGAGLLDEMEAHKLELTVEIKMKRLMNAPSSIPPPPPENLLKNVSWLAGDMKLIDFIKARASLLHFDYGEVIVREGDESDGLFLIVSGLVKLYGKSAFLDHDNPPVTAGSEENEVFEDCLTVGNVIGEMGVLTKKPRNATVTCETTVQVYFITAEDMNIAIDTFTLYPSLEYRLWRVVAIRIATPLIMEQMAFQGWTQEKVKLHLERGYLVDLAESHFQFNIDATLEDVILINGTAYNAHTREEIRSPCLISRTVHKLTFQYTATEEPRLFVVRNAEYNGPILDGRLDVDSKRSLISITEISSNMCLKHAAELRQKNSKVMLSRKSSGAAAKEEEDCIPNTSDVEQAAGVSPSVPTKTTPKPKSFLPSLGLSMSKERVNGEAVEESPVKTKQGEETPETEEGAAPRVNV
notes: SLC9C1, Strongylocentrotus purpuratus, with Y1035C; source: HEK293F, transiently transfected; not shown: mEGFP, C-terminal, kept; Twinstrep, C-terminal, kept
B4: binds [2].

B5: sp9C1 truncated at amino acid position 657, eGFP fusion (domain or fragment, Strongylocentrotus purpuratus, UniProt A3RL54 30-657, looked up)
chain: SSGGSGHTPTTQATHADDHDLTTHNGTEEHDDGHDDGHDDLHAHAPKVIVFISGSCLFGAISRSLFKKLPIPYTVVLLILGAILGVVASNVPLVEEHTRDVAHMDPHVLLQIFLPVLIFESAFAMDVHTFMRSFSQVCILALFGLVVASVLTAVLAMNLFNYNWNFSEAMMFGAIMSATDPVAVVALLKDLGASKQLGTIIEGESLLNDGCAIVIFNVFMKMVFFPQLTSTVGQNVLYFLQVAVAGPLWGYAVAKVTVFFLSHIFNDALVEITITLAATYLTYYIGDIWLEVSGVLAVVVLGLIVNAEKTSISPEVEVFLHRFWEMLAYLANTLIFMMVGVVVTQKALVAVDKMDWFYLIILYLAITIIRGMVISLFSPILSRIGYGLTWRNAVIMTWGGLRGAVGLALALVVENLAGNDVIGSKFLFHTAGIVVLTLVINATTIQTLLRILGMSDISIPKRLAMAGAVRRIHEGQNRTLNMLKSDRFLADADWDIATAACEISDPYSALSDDENAPADELTLGERKSVCPGCKAMVPNEPSPREFADMMEEARLRMLKAEKISYWKQFEHGMLAREALRLLVQHAEVAADEKDQFILVDDLKKSWQIKGIYPWLKRKLEDLISEKKI
notes: the ARD is partly deleted; source: HEK293F, transiently transfected; not shown: mEGFP, C-terminal, kept; Twinstrep, C-terminal, kept
In the case of B5, the “stoichiometry N” value [1] is reported as 2.

B6: sp9C1 truncated at amino acid position 950, eGFP fusion (domain or fragment, Strongylocentrotus purpuratus, UniProt A3RL54 30-950, looked up)
chain: SSGGSGHTPTTQATHADDHDLTTHNGTEEHDDGHDDGHDDLHAHAPKVIVFISGSCLFGAISRSLFKKLPIPYTVVLLILGAILGVVASNVPLVEEHTRDVAHMDPHVLLQIFLPVLIFESAFAMDVHTFMRSFSQVCILALFGLVVASVLTAVLAMNLFNYNWNFSEAMMFGAIMSATDPVAVVALLKDLGASKQLGTIIEGESLLNDGCAIVIFNVFMKMVFFPQLTSTVGQNVLYFLQVAVAGPLWGYAVAKVTVFFLSHIFNDALVEITITLAATYLTYYIGDIWLEVSGVLAVVVLGLIVNAEKTSISPEVEVFLHRFWEMLAYLANTLIFMMVGVVVTQKALVAVDKMDWFYLIILYLAITIIRGMVISLFSPILSRIGYGLTWRNAVIMTWGGLRGAVGLALALVVENLAGNDVIGSKFLFHTAGIVVLTLVINATTIQTLLRILGMSDISIPKRLAMAGAVRRIHEGQNRTLNMLKSDRFLADADWDIATAACEISDPYSALSDDENAPADELTLGERKSVCPGCKAMVPNEPSPREFADMMEEARLRMLKAEKISYWKQFEHGMLAREALRLLVQHAEVAADEKDQFILVDDLKKSWQIKGIYPWLKRKLEDLISEKKIAAIPMPKYKLGKLMYKICHHMAFEVTINIAIVLNIVPIIMEFVVQDKMASVSTMAAPGSTVSSEPSSLQKIEDALRISNYVFFVIYAIEAIVKILGLGRHYIVSHWNKFDAFILVVALVDIIIAETLLKGSITINLSSIKVVKLFRLLRGLRMLRLTKALIPKLILVVNGKINNQLSLGYDVGKGYIIGEEEVGKIIDRMVDNKKILRELKHISETGRLQVVKELGLLQREHPGIAVSVKTRQAIRTILNHSRETIHELQGAGLLDEMEAHKLELTVEIKMKRLMNAPSSIPP
notes: SLC9C1, Strongylocentrotus purpuratus, truncated at amino acid position 950; the CNBD, βR2 and the C-terminal tail are deleted; also called 950 construct; source: HEK293F, transiently transfected; not shown: mEGFP, C-terminal, kept; Twinstrep, C-terminal, kept
In the case of B6, the “stoichiometry N” value [1] is reported as 2.
